In this test the target is T1, Recombinant His-cGAS (human, UniProt Q8N884 1-522).
T1 construct: cGAS cloned into the pET28a plasmid for the GST pull-down; also called purified His-cGAS
Put plainly: pull-down; purified His-cGAS incubated with GST, GST-TRIM6 or its truncated mutants on GST-tag resin overnight at 4 °C; 50 mM Tris pH 8.0, 200 mM NaCl, 1 mM EDTA, 1% NP-40, 1 mM DTT, 1 mM MgCl2; immunoblot with anti-His or anti-cGAS. Conditions: both partners purified. Background: In western blotting, separated proteins are transferred to a membrane and probed.

T1 sequence (Q8N884 whole entry): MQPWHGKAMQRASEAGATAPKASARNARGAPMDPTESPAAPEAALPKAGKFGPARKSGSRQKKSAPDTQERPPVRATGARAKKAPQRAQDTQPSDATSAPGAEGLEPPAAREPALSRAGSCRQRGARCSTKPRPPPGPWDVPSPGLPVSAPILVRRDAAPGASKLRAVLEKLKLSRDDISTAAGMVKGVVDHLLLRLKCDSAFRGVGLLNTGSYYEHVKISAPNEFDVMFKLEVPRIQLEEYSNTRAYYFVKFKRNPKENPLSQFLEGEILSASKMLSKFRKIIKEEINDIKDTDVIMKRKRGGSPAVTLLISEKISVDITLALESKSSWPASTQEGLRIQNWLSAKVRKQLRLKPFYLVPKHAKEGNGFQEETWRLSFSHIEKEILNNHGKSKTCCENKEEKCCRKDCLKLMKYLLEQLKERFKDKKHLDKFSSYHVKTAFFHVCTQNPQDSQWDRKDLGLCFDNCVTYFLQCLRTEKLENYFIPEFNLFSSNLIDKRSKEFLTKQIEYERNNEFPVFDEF

B1: GST-TRIM6 (full length) (enzyme, human, UniProt Q9C030-2 1-516, looked up)
chain: MCGSERILQAGNILEIRVGQAGARRVATMTSPVLVDIREEVTCPICLELLTEPLSIDCGHSFCQACITPNGRESVIGQEGERSCPVCQTSYQPGNLRPNRHLANIVRRLREVVLGPGKQLKAVLCADHGEKLQLFCQEDGKVICWLCERSQEHRGHHTFLVEEVAQEYQEKFQESLKKLKNEEQEAEKLTAFIREKKTSWKNQMEPERCRIQTEFNQLRNILDRVEQRELKKLEQEEKKGLRIIEEAENDLVHQTQSLRELISDLERRCQGSTMELLQDVSDVTERSEFWTLRKPEALPTKLRSMFRAPDLKRMLRVCRELTDVQSYWVDVTLNPHTANLNLVLAKNRRQVRFVGAKVSGPSCLEKHYDCSVLGSQHFSSGKHYWEVDVAKKTAWILGVCSNSLGPTFSFNHFAQNHSAYSRYQPQSGYWVIGLQHNHEYRAYEDSSPSLLLSMTVPPRRVGVFLDYEAGTVSFYNVTNHGFPIYTFSKYYFPTTLCPYFNPCNCVIPMTLRRPSS
notes: TRIM6, human, full-length, cloned into the pGEX-6T-1 vector; also called full-length TRIM6
In the case of B1, the binding result is recorded as “binds”.

The values are drawn from publication PMC12355757, “TRIM6 ablation reverses ICB resistance in MSS gastric cancer by unleashing cGAS-STING-dependent antitumor immunity” (Journal of Experimental & Clinical Cancer Research : CR, 2025).
